This is an account of results in paper PMC5175494.

For assay [1], the target named is human cardiac T53C-IAANS TnC (human) (UniProt P63316). As to the kind of experiment: stopped-flow fluorescence; apparent; 1 uM TnC T53C-IAANS with saturating Ca2+ and increasing concentrations of TnI128-180, Ca2+ removed with 10 mM EGTA; rate of Ca2+ dissociation followed by IAANS fluorescence; 15°C; 10 mM MOPS, 150 mM KCl, pH 7.0.
Another assay has as its target Troponin C (UniProt P63316). Particulars: cited from earlier work.

Consider “TnI_(128−180) peptide (from UniProt P19429 128-180)”, for which the Kd in assay [1] amounted to 3000 nM.
On to Troponin I (from UniProt P19429), for which the Kd with Troponin C is 1200 nM.
